{
  "source": "patent US9765303B2",
  "about": "“Method for the production of differentiated respiratory epithelial cells” (MEDIZINISCHE HOCHSCHULE HANNOVER, priority 2011, dated 2017)",
  "molecules": {"B1": {"name": "KGF: recombinant human keratinocyte growth factor (Amgen), also referred to as fibroblast growth factor-7 (protein, UniProt P21781 32-194, looked up)", "Fibroblast growth factor 7": "CNDMTPEQMATNVNCSSPERHTRSYDYMEGGDIRVRRLFCRTQWYLRIDKRGKVKGTQEMKNNYNIMEIRTVAVGIVAIKGVESEFYLAMNKEGKLYAKKECNEDCNFKELILENHYNTYASAKWTHNGGEMFVALNQKGIPVRGKKTKKEQKTAHFLPMAIT"}},
  "tested_on": "surfactant protein C (SP-C)",
  "assay": "qRT-PCR of SP-C mRNA in day 24 pluripotent stem cell differentiation cultures",
  "type": "cell-based, murine",
  "conditions": "KGF alone; start on day 0 of differentiation compared to later supplementation",
  "procedure": "This method is based on our 2008 published differentiation protocol^3. To initiate embryoid body (EB) formation “hanging drops” composed of 6×10^2 cells in 20 μl of differentiation medium were generated (day 0 of differentiation). At day 3 of differentiation, EBs (100 EBs/dish) were transferred to non-adherent petri dishes (Greiner) and cultivated in suspension for two additional days. At day 5 of differentiation, 10 EBs/well were seeded on a 0.1% gelatin-coated 6-well culture dish and cultured until day 24 of differentiation. From day 0 to 7 the basal differentiation medium was composed of Iscove's Modified Dulbecco's Medium (IMDM, Invitrogen), 0.2 mM L-glutamine, 0.1 mM β-mercaptoethanol, 0.1 mM non-essential amino acid stock supplemented with 15% FCS and from day 7 to 24 supplemented with 15% serum replacement (Knockout™ SR, Invitrogen). […]\nThe differentiation medium was replaced by fresh medium every two to three days. The differentiation was stopped on day 24 and differentiation cultures were analyzed for the presence of lung epithelial cells.\nqRT-PCR was used to quantify mRNA expression of typical lung epithelial markers, in particular for bronchial/bronchiolar and alveolar epithelial cells. […]",
  "data": [
    {"molecule": "B1", "values": [
      {"measurement": "SP-C expression by start of KGF supplementation", "result": "highest expression"}
    ]}
  ]
}
